Columns and labels:
[1] = target: T1, tPA (Homo sapiens, UniProt P00750); test: Plasminogen-activation assay (tPA-mediated Plg to Pls, S-2251); format: biochemical; details: 100 μg ml^−1 protein
T1 construct: purchased Boehringer-Ingelheim (Actilyse, Alteplase)
Protocol: Plasmin (Pls) activity was assayed as described^7. Peptides and proteins that were tested for their stimulatory ability were regularly used at 100 μg ml^−1. […] Chromogenic substrate S-2251 (Chromogenix, Instrumentation Laboratory SpA, Milano, Italy) was used to measure Pls activity. Conversion of zymogen factor XII (#233490, Calbiochem, EMD Biosciences, Inc., San Diego, Calif.) to proteolytically active factor XII (factor XIIa) was assayed by measurement of the conversion of chromogenic substrate Chromozym-PK (Roche Diagnostics, Almere, The Netherlands) by kallikrein. Chromozym-PK was used at a concentration of 0.3 mM. Factor XII, human plasma prekallikrein (#529583, Calbiochem) and human plasma cofactor high-molecular weight kininogen (#422686, Calbiochem) were used at concentrations of 1 μg ml^−1. […] Assays were performed using microtiter plates (Costar, Cambridge, Mass., USA). Peptides and proteins were tested for their ability to activate factor XII. […] The conversion of Chromozym-PK was recorded kinetically at 37° C. for at least 60 minutes. […] With S-2222, activation of factor XII in plasma was measured, using 60% v/v plasma, diluted with substrate and H2O with or without potential cofactor. Furthermore, auto-activation of factor XII was measured by incubating 53 μg ml^−1 purified factor XII in 50 mM Tris-HCl buffer pH 7.5 with 1 mM EDTA and 0.001% v/v Triton-X100, with S-2222 and H2O with or without potential cofactor.
Formulated protein therapeutics were obtained from the local hospital pharmacy and were used as supplied by the manufacturers. […] Enhancement in fluorescence of ThT and Congo red was measured with all formulated protein therapeutics. […]
To prepare structurally altered ovalbumin (OVA) with amyloid cross-β structure conformation, purified OVA (Sigma, A-7641, lot 071k7094) was heated to 85° C. […] Native OVA (nOVA) and heat-denatured OVA (dOVA) were tested in the ThT fluorescence assay and in the Plg-activation assay. In the fluorescence assay and in the Plg-activation assay, 25 and 100 μg ml^−1 nOVA and dOVA were tested, respectively. […]

[2] = ThT fluorescence of CpG-ODN-protein mixtures; format: physicochemical; details: for increased ThT fluorescence: 1 mg ml^−1 protein exposed to 21.4 μg ml^−1 CPG-ODN (FIG. 4F); for increase in ThT fluorescence: 1 mg ml^−1 protein, 30 min. at room temperature (FIG. 4D, E)
Protocol: (§1) Fluorescence of ThT-protein/peptide adducts was measured as follows. […] Fluorescence was measured at 485 nm upon excitation at 435 nm. Background signals from buffer, buffer with ThT and protein/peptide solution without ThT were subtracted from corresponding measurements with protein solution incubated with ThT. […] Fluorescence was measured in triplicate on a Hitachi F-4500 fluorescence spectrophotometer (Ltd., Tokyo, Japan).
Enhancement of ThT fluorescence was measured similarly as described above. […]

[3] = ThT fluorescence of LPS-protein mixtures; format: physicochemical
Protocol: as §1
Subsequently, the ability to enhance ThT fluorescence was determined with 40× diluted solution, as described above. […]

[4] = tested on: Balb/c mice; test: Immunization of Balb/c mice with ovalbumin and amyloid-like ovalbumin; format: in vivo; details: without adjuvant
Protocol: Eight to ten weeks old female Balb/c mice are immunized with OVA according to two immunization regimes (Central Animal Laboratories, Utrecht University, The Netherlands). Pre-immune serum was collected prior to the immunizations. In one regime two groups of five mice were subcutaneously injected five consecutive days per week, for three consecutive weeks. Doses comprised 10 μg native OVA or heat-denatured OVA for each injection. Alternatively, according to the second protocol, three groups of five mice were injected once intraperitoneally with doses comprising 5 μg nOVA, 5 μg OVA or 5 μg native OVA mixed 1:1 with complete Freund's adjuvant (CFA). Each week, blood was taken. After three weeks, a second dose was given. Incomplete Freund's adjuvant (IFA) was used instead of CFA. Blood was taken after one week after the start of the immunization. Antibody titers in sera were determined and sera were analyzed for the presence of cross-β structure conformation specific antibodies. For this purpose, nOVA was coated onto wells of 96-wells ELISA plates and incubated with dilution series of sera. Sera of the groups of five mice were pooled prior to the analyses. Plates were washed and subsequently incubated with peroxidase-conjugated rabbit anti-mouse immunoglobulins (RAMPO, P0260, DAKOCytomation, Glostrup, Denmark). Plates were subsequently developed with tetramethylbenzidine (TMB) substrate. […]

[5] = target: T2, human fibronectin finger 4,5 (Fn F4,5) fragment (Homo sapiens, UniProt P02751); test: ELISA, binding of fibronectin F4,5 to coated (mis)folded proteins; details: coated protein, FIG. 7D-H
T2 construct: human fibronectin finger 4,5 (Fn F4,5) fragment; made in house; host or cells: HEK293E cells, transient transfection, protein purified from the medium
Protocol: The plates were blocked using Blocking reagent (Roche 1112589). A dilution series of the protein of interest was applied to the coated proteins and wells were subsequently washed using TBS-T (50 mM Tris pH 7.3, 150 mM NaCl and 0.1% Tween20). Bound protein is detected by the FLAG-tag using 1:3000 anti-FLAG-HRP (Sigma A-8592) in PBS-T, or by 1:1000 Ni-NTA-HRP (Qiagen 34530) in PBS-T. The HRP reaction Is performed using the TMB substrate (Biosource 4501103 or Tebu Bio 101TMB100-500), stopped using 10% H2SO4 and absorbance was measured at 450 nm.

[6] = tested on: anti-β2GPI auto-antibodies; test: Interference with binding of anti-β2GPI autoantibodies to immobilized β2GPI; set-up: species or system human; details: antibodies from Anti-phospholipid syndrome patients
Protocol: When plasma derived β2GPI is coated onto hydrophilic ELISA plates, anti-β2GPI auto-antibodies isolated from plasma of antiphospholipid syndrome auto-immune patients can bind^14. To study the influence of co-incubations of the coated β2GPI with the antibodies together with plasma β2GPI or recombinant β2GPI, concentration series of β2GPI were added to the patient antibodies. Subsequently, binding of the antibodies to coated β2GPI was determined.

[7] = ThT fluorescence of β2GPI with or without CL vesicles or DXS500k; format: physicochemical
Protocol: ThT fluorescence of β2GPI was measured as follows. […] CL vesicles were prepared according to an established procedure. Briefly, CL was dried under a stream of nitrogen. The lipids were resuspended to a concentration of 10 mg ml^−1 in 25 mM Tris-HCl, pH 7.3, 150 mM NaCl by vigorous agitation, using a vortex. In the ThT fluorescence assay, fluorescence of β2GPI in buffer, of CL or DXS500k in buffer, of buffer and ThT alone, and of β2GPI-CL adducts and β2GPI-DXS500k adducts, with or without ThT, was recorded as described above (section ThT fluorescence). In addition, TEM images were recorded with CL, β2GPI from human plasma, with or without CL, and with recombinant β2GPI, as described^1.

[8] = 1 mg ml^−1 protein exposed to 600 μg ml^−1 LPS (FIG. 4C)

T1 sequence (P00750 36-562): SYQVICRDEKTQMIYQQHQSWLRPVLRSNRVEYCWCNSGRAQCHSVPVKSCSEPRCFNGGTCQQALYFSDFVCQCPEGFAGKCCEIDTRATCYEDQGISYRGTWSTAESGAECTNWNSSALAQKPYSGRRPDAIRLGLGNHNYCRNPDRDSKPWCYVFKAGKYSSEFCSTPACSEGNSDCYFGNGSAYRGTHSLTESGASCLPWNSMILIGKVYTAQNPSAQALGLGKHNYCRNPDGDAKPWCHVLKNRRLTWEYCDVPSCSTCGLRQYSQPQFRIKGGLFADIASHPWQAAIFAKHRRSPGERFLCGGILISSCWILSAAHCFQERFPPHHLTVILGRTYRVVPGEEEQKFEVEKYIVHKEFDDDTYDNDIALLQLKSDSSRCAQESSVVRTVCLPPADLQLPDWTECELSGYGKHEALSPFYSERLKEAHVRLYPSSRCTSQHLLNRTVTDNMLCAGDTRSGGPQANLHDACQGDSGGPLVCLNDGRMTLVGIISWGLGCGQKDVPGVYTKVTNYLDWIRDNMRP
T2 sequence (P02751 182-276 limits assumed): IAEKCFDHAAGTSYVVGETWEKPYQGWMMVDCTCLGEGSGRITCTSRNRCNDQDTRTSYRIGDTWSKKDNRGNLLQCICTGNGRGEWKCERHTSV

B1: endostatin: protein therapeutic endostatin (EntreMed, Inc.) (protein)
chain: HSHRDFQPVLHLVALNSPLSGGMRGIRGADFQCFQQARAVGLAGTFRAFLSSRLQDLYSIVRRADRAAVPIVNLKDELLFPSWEALFSGSEGPLKPGARIFSFDGKDVLRHPTWPQKSVWHGSDPNGRRLTESYCETWRTEAPSATGQASSLLGGRLLGQSAASCHHAYIVLCIENSFMTASK
- stimulation of tPA-mediated conversion of Plg to Pls [1]: absence of tPA activating properties
- increased ThT fluorescence [2]: approximately 10 factor
- increase in ThT fluorescence ([2]; 10.4 μg ml^−1 CPG-ODN): ~39 times
- increase in ThT fluorescence ([2]; 21.7 μg ml^−1 CPG-ODN): ~56 times
- ThT fluorescence enhancement ([3]; 200 μg ml^−1 LPS (FIG. 4D, E)): approximately 8 times
- ThT fluorescence enhancement ([3]; 400 μg ml^−1 LPS (FIG. 4D, E)): ~20 times
- ThT fluorescence enhancement ([3]; 600 μg ml^−1 LPS (FIG. 4D, E)): ~26 times
- ThT fluorescence enhancement [3, 8]: approximately 10 times

B2: nOVA: native chicken ovalbumin (protein)
chain: GSIGAASMEFCFDVFKELKVHHANENIFYCPIAIMSALAMVYLGAKDSTRTQINKVVRFDKLPGFGDSIEAQCGTSVNVHSSLRDILNQITKPNDVYSFSLASRLYAEERYPILPEYLQCVKELYRGGLEPINFQTAADQARELINSWVESQTNGIIRNVLQPSSVDSQTAMVLVNAIVFKGLWEKAFKDEDTQAMPFRVTEQESKPVQMMYQIGLFRVASMASEKMKILELPFASGTMSMLVLLPDEVSGLEQLESIINFEKLTEWTSSNVMEERKIKVYLPRMKMEEKYNLTSVLMAMGITDVFSSSANLSGISSAESLKISQAVHAAHAEINEAGREVVGSAEAGVDAASVSEEFRADHPFLFCIKHIATNAVLFFGRCVSP
- anti-nOVA antibody titers in pooled sera [4]: Titers were also obtained

B3: reduced and alkylated OVA: reduced and alkylated ovalbumin (protein)
chain: B2 chain
- affinity of fibronectin F4,5 (detection anti-FLAG HRP) [5]: acted as its native control

B4: recombinant β2GPI: recombinant human β2-glycoprotein I made using insect cells (protein)
chain: GRTCPKPDDLPFSTVVPLKTFYEPGEEITYSCKPGYVSRGGMRKFICPLTGLWPINTLKCTPRVCPFAGILENGAVRYTTFEYPNTISFSCNTGFYLNGADSAKCTEEGKWSPELPVCAPIICPPPSIPTFATLRVYKPSAGNNSLYRDTAVFECLPQHAMFGNDTITCTTHGNWTKLPECREVKCPFPSRPDNGFVNYPAKPTLYYKDKATFGCHDGYSLDGPEEIECTKLGNWSAMPSCKASCKVPVKKATVVYQGERVKIQEKFKNGMLHGDKVSFFCKNKEKKCSYTEDAQCIDGTIEVPKCFKEHSSLAFWKTDASDVKPC
- stimulation of tPA-mediated conversion of Plg to Pls [1]: stimulate tPA-mediated conversion of Plg to Pls
- inhibition of binding of anti-β2GPI auto-antibodies to immobilized β2GPI [6]: efficiently inhibits binding
- increased ThT fluorescence [2]: approximately 5 factor
- ThT fluorescence after exposure to CL vesicles or DXS ([7]; 25 μg ml^−1 β2GPI, 100 μM CL vesicles or 250 μg ml^−1 DXS): increased fluorescence of ThT
- ThT fluorescence signal of β2GPI preparation ([7]; without CL or DXS500k): higher ThT fluorescence signal
- ThT fluorescence enhancement [3, 8]: ~4 times
